The values that follow come from the supplement of paper PMC9112550, “Optimization of the antimicrobial peptide Bac7 by deep mutational scanning” (BMC Biology, 2022).
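Also: peptides expressed intracellularly from a pBAD plasmid library in pooled LB shake-flask culture, induced with 0.3% L-arabinose, DNA abundance read by NGS, three biological replicates, DESeq2 with apeglm shrinkage.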

The data set has as its system Escherichia coli TOP10. As to the kind of experiment: shrunken log2 fold change of peptide-encoding DNA abundance (4.5 h post-induction vs induction); higher = less antimicrobial activity (less host growth inhibition). Conditions: time post-induction: 4.5 h; library: site-saturation at positions 5, 18, 19, 20.
Turning to RRIRHRPPRLPRPRPRPASFPRP, the “shrunken log2 fold change” value is -0.215. Turning to RRIRDRPPRLPRPRPRPSENPRP, the “shrunken log2 fold change” value was -0.0386. To RRIRIRPPRLPRPRPRPNHPPRP belongs -0.469; to RRIRIRPPRLPRPRPRPCAWPRP, -0.0154; to RRIRDRPPRLPRPRPRPAYWPRP, -0.0729. In the case of RRIRERPPRLPRPRPRPMNGPRP, the “shrunken log2 fold change” value is -0.0134. As for RRIRNRPPRLPRPRPRPNAHPRP, the figure is -0.456.

RRIRVRPPRLPRPRPRPEFKPRP: the “shrunken log2 fold change” value came out at 0.0262. As for RRIRWRPPRLPRPRPRPNNAPRP, the figure is -0.295; as for RRIRMRPPRLPRPRPRPWDCPRP, 0.00902. Turning to RRIRRRPPRLPRPRPRPKHVPRP, the “shrunken log2 fold change” value worked out at 0.19. As for RRIRSRPPRLPRPRPRPPSCPRP, the figure is -0.0434. To RRIRKRPPRLPRPRPRPYCSPRP belongs -0.0347; to RRIRTRPPRLPRPRPRPEIRPRP, -0.0371. As for RRIRERPPRLPRPRPRPWFAPRP, the “shrunken log2 fold change” value is -0.276. On to RRIRWRPPRLPRPRPRPNPNPRP, for which the “shrunken log2 fold change” value amounted to 0.055.

Take RRIRGRPPRLPRPRPRPLQIPRP: the “shrunken log2 fold change” value came out at 0.803. With RRIRTRPPRLPRPRPRPQMNPRP, the “shrunken log2 fold change” value is -0.345. To RRIRPRPPRLPRPRPRPCIHPRP belongs -0.252. For the sequence RRIRARPPRLPRPRPRPEKKPRP, the “shrunken log2 fold change” value was 0.275. As for RRIRNRPPRLPRPRPRPLQFPRP, the “shrunken log2 fold change” value came out at 0.0375. In the case of RRIRARPPRLPRPRPRPYLYPRP, the “shrunken log2 fold change” value was -0.312.

Take RRIRRRPPRLPRPRPRPDQCPRP: the “shrunken log2 fold change” value was -0.00402. As to RRIRMRPPRLPRPRPRPLICPRP, the “shrunken log2 fold change” value amounted to 0.108. With RRIRIRPPRLPRPRPRPKRVPRP, the “shrunken log2 fold change” value came to 0.0424.

Regarding RRIRRRPPRLPRPRPRPHFAPRP, the “shrunken log2 fold change” value stood at 0.382. As for RRIRRRPPRLPRPRPRPVNQPRP, the “shrunken log2 fold change” value worked out at 0.129. As to RRIRGRPPRLPRPRPRPMQCPRP, the “shrunken log2 fold change” value is -0.0159. As to RRIRVRPPRLPRPRPRPPHIPRP, the “shrunken log2 fold change” value stood at 0.0567.

RRIRNRPPRLPRPRPRPETRPRP: the “shrunken log2 fold change” value is 0.254. Turning to RRIRVRPPRLPRPRPRPDNWPRP, the “shrunken log2 fold change” value was -0.343. To RRIRQRPPRLPRPRPRPKILPRP belongs -0.0155; to RRIRFRPPRLPRPRPRPHATPRP, -0.0624. As for RRIRARPPRLPRPRPRPPGNPRP, the “shrunken log2 fold change” value was 0.574.

In the case of RRIRIRPPRLPRPRPRPVQSPRP, the “shrunken log2 fold change” value is -0.168.

On to RRIRERPPRLPRPRPRPHGLPRP, for which the “shrunken log2 fold change” value was -0.161. For RRIRYRPPRLPRPRPRPCWPPRP, the “shrunken log2 fold change” value stood at 0.0499. To RRIRGRPPRLPRPRPRPFQQPRP belongs -0.0372.

For the sequence RRIRTRPPRLPRPRPRPMLVPRP, the “shrunken log2 fold change” value was -0.000238. As for RRIRKRPPRLPRPRPRPMMVPRP, the figure is 0.0826.

For RRIRSRPPRLPRPRPRPQASPRP, the “shrunken log2 fold change” value turned out to be 0.552. Regarding RRIRTRPPRLPRPRPRPKVVPRP, the “shrunken log2 fold change” value is 2.37. On to RRIRLRPPRLPRPRPRPEPWPRP, for which the “shrunken log2 fold change” value came out at 0.222.

In the case of RRIRGRPPRLPRPRPRPSRVPRP, the “shrunken log2 fold change” value amounted to 0.61. RRIRMRPPRLPRPRPRPRIWPRP: the “shrunken log2 fold change” value stood at 0.726. Take RRIRARPPRLPRPRPRPFFGPRP: the “shrunken log2 fold change” value is 0.349. Turning to RRIRARPPRLPRPRPRPSCYPRP, the “shrunken log2 fold change” value turned out to be 0.0075.

In the case of RRIRKRPPRLPRPRPRPTNYPRP, the “shrunken log2 fold change” value was -0.114. For RRIRARPPRLPRPRPRPLMTPRP, the “shrunken log2 fold change” value came out at 0.474. To RRIRRRPPRLPRPRPRPEQVPRP belongs -0.0118; to RRIRKRPPRLPRPRPRPPMDPRP, 0.587; to RRIRFRPPRLPRPRPRPTSYPRP, -0.43. As for RRIRGRPPRLPRPRPRPDSPPRP, the figure is 0.136; as for RRIRARPPRLPRPRPRPKNRPRP, 0.134; as for RRIRARPPRLPRPRPRPETAPRP, 0.236. As for RRIRGRPPRLPRPRPRPLQTPRP, the figure is 1.59; as for RRIRVRPPRLPRPRPRPPVTPRP, -0.0902. RRIRERPPRLPRPRPRPYKSPRP: the “shrunken log2 fold change” value is -0.0824. Regarding RRIRQRPPRLPRPRPRPEQTPRP, the “shrunken log2 fold change” value amounted to 0.0148. Take RRIRERPPRLPRPRPRPLWGPRP: the “shrunken log2 fold change” value amounted to 0.0859. As for RRIRARPPRLPRPRPRPEWWPRP, the figure is 0.945. To RRIRDRPPRLPRPRPRPDLNPRP belongs -0.041; to RRIRARPPRLPRPRPRPAIWPRP, 0.709; to RRIRMRPPRLPRPRPRPYCGPRP, -0.0255. With RRIRARPPRLPRPRPRPYGAPRP, the “shrunken log2 fold change” value was -0.206. As for RRIRPRPPRLPRPRPRPSINPRP, the figure is -0.756.

With RRIRMRPPRLPRPRPRPQGWPRP, the “shrunken log2 fold change” value is 1.01. As for RRIRRRPPRLPRPRPRPFRIPRP, the figure is 0.101. As for RRIRFRPPRLPRPRPRPIDTPRP, the figure is -0.127. RRIRWRPPRLPRPRPRPSTKPRP: the “shrunken log2 fold change” value is -0.0244. As for RRIRGRPPRLPRPRPRPFEAPRP, the figure is 0.727; as for RRIRCRPPRLPRPRPRPGMFPRP, -0.462; as for RRIRARPPRLPRPRPRPKTHPRP, 0.227. As for RRIRQRPPRLPRPRPRPHEVPRP, the figure is -0.0426; as for RRIRFRPPRLPRPRPRPQMNPRP, -0.709. To RRIRCRPPRLPRPRPRPDCRPRP belongs -0.195; to RRIRNRPPRLPRPRPRPQFIPRP, -0.125. In the case of RRIRLRPPRLPRPRPRPKRCPRP, the “shrunken log2 fold change” value was -0.0395.

With RRIRKRPPRLPRPRPRPRWNPRP, the “shrunken log2 fold change” value worked out at 0.323. As for RRIRFRPPRLPRPRPRPVSCPRP, the figure is -0.514.

For the sequence RRIRGRPPRLPRPRPRPEDSPRP, the “shrunken log2 fold change” value turned out to be 1.39. Regarding RRIRFRPPRLPRPRPRPLRHPRP, the “shrunken log2 fold change” value amounted to 0.353. In the case of RRIRRRPPRLPRPRPRPNDNPRP, the “shrunken log2 fold change” value was -0.301. Consider RRIRQRPPRLPRPRPRPQFYPRP, for which the “shrunken log2 fold change” value was -0.407.

With RRIRCRPPRLPRPRPRPRMAPRP, the “shrunken log2 fold change” value worked out at 0.331.

For RRIRQRPPRLPRPRPRPAWFPRP, the “shrunken log2 fold change” value is 0.162. As for RRIRYRPPRLPRPRPRPKIRPRP, the “shrunken log2 fold change” value is 0.0107. As for RRIRFRPPRLPRPRPRPCWEPRP, the figure is -0.356; as for RRIRARPPRLPRPRPRPPKEPRP, 0.818. As for RRIRNRPPRLPRPRPRPYRCPRP, the figure is -0.153. As for RRIRCRPPRLPRPRPRPKWEPRP, the figure is 0.173. Consider RRIRDRPPRLPRPRPRPDQWPRP, for which the “shrunken log2 fold change” value amounted to 0.396.

For RRIRDRPPRLPRPRPRPLAEPRP, the “shrunken log2 fold change” value was found to be 1.17. To RRIRWRPPRLPRPRPRPDIHPRP belongs -0.196. As for RRIRPRPPRLPRPRPRPNMSPRP, the figure is -0.485; as for RRIRHRPPRLPRPRPRPHWQPRP, -0.00133; as for RRIRMRPPRLPRPRPRPVMCPRP, 0.321. To RRIRHRPPRLPRPRPRPSVNPRP belongs -0.0443; to RRIRQRPPRLPRPRPRPWTDPRP, 0.0166; to RRIRYRPPRLPRPRPRPKCTPRP, -0.0162. On to RRIRIRPPRLPRPRPRPDHQPRP, for which the “shrunken log2 fold change” value is -0.0128.

In the case of RRIRPRPPRLPRPRPRPWMPPRP, the “shrunken log2 fold change” value was -0.00504. As for RRIRSRPPRLPRPRPRPMPCPRP, the figure is 0.216; as for RRIRRRPPRLPRPRPRPNVNPRP, -0.0627. RRIRVRPPRLPRPRPRPHCIPRP: the “shrunken log2 fold change” value was -0.551. To RRIRQRPPRLPRPRPRPQMNPRP belongs -0.72; to RRIRLRPPRLPRPRPRPAYYPRP, -0.253. On to RRIRARPPRLPRPRPRPDSMPRP, for which the “shrunken log2 fold change” value was determined as 0.02. To RRIRNRPPRLPRPRPRPHCQPRP belongs -0.861; to RRIRYRPPRLPRPRPRPGWEPRP, -0.143; to RRIRHRPPRLPRPRPRPLGVPRP, -0.109. To RRIRQRPPRLPRPRPRPIVYPRP belongs -0.311; to RRIRGRPPRLPRPRPRPKHNPRP, 0.203; to RRIRLRPPRLPRPRPRPTGSPRP, -0.0138.

On to RRIRYRPPRLPRPRPRPIPSPRP, for which the “shrunken log2 fold change” value was -0.0334.

Take RRIRIRPPRLPRPRPRPQRVPRP: the “shrunken log2 fold change” value was -0.406. Take RRIRNRPPRLPRPRPRPGEAPRP: the “shrunken log2 fold change” value stood at 0.33. Regarding RRIRKRPPRLPRPRPRPAFQPRP, the “shrunken log2 fold change” value was 0.107. To RRIRMRPPRLPRPRPRPDTSPRP belongs 1.47; to RRIRLRPPRLPRPRPRPSWVPRP, -0.141; to RRIRFRPPRLPRPRPRPPREPRP, 0.43. Take RRIRQRPPRLPRPRPRPNFFPRP: the “shrunken log2 fold change” value was determined as 0.313.

For the sequence RRIRCRPPRLPRPRPRPICKPRP, the “shrunken log2 fold change” value turned out to be 0.0601. As for RRIRSRPPRLPRPRPRPHPEPRP, the figure is 0.316.

Regarding RRIRVRPPRLPRPRPRPLHIPRP, the “shrunken log2 fold change” value was -0.528.
